# Measurements as given in the supplement of paper PMC9112550, “Optimization of the antimicrobial peptide Bac7 by deep mutational scanning” (BMC Biology, 2022).
# Test system: Escherichia coli TOP10
# Experiment: shrunken log2 fold change of peptide-encoding DNA abundance (4.5 h post-induction vs induction); higher = less antimicrobial activity (less host growth inhibition)
# Conditions: time post-induction: 4.5 h; library: site-saturation at positions 5, 18, 19, 20
# 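Further: peptides expressed intracellularly from a pBAD plasmid library in pooled LB shake-flask culture, induced with 0.3% L-arabinose, DNA abundance read by NGS, three biological replicates, DESeq2 with apeglm shrinkage.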
row,Sequence,shrunken log2 fold change
1,RRIRERPPRLPRPRPRPHNNPRP,0.486
2,RRIRMRPPRLPRPRPRPMIQPRP,0.00725
3,RRIRDRPPRLPRPRPRPMIMPRP,0.387
4,RRIRKRPPRLPRPRPRPVLQPRP,-0.0875
5,RRIRERPPRLPRPRPRPFINPRP,-0.991
6,RRIRERPPRLPRPRPRPMVCPRP,-0.0478
7,RRIRSRPPRLPRPRPRPEVWPRP,0.779
8,RRIRPRPPRLPRPRPRPCQAPRP,0.00851
9,RRIRIRPPRLPRPRPRPKNEPRP,-0.14
10,RRIRKRPPRLPRPRPRPVGPPRP,0.441
11,RRIRWRPPRLPRPRPRPLMNPRP,-0.0906
12,RRIRARPPRLPRPRPRPPPEPRP,1.24
13,RRIRERPPRLPRPRPRPQVQPRP,0.029
14,RRIRRRPPRLPRPRPRPQCVPRP,0.0427
15,RRIRGRPPRLPRPRPRPEYNPRP,0.643
16,RRIRGRPPRLPRPRPRPSGQPRP,0.538
17,RRIRQRPPRLPRPRPRPVVMPRP,0.0928
18,RRIRIRPPRLPRPRPRPSSDPRP,0.0499
19,RRIRMRPPRLPRPRPRPFQFPRP,-0.0349
20,RRIRCRPPRLPRPRPRPASDPRP,-0.0092
21,RRIRYRPPRLPRPRPRPNGCPRP,-0.000687
22,RRIRYRPPRLPRPRPRPWWTPRP,-0.333
23,RRIRIRPPRLPRPRPRPHQQPRP,-0.132
24,RRIRARPPRLPRPRPRPWMKPRP,-0.172
25,RRIRARPPRLPRPRPRPNYRPRP,0.0835

row,Sequence,shrunken log2 fold change
1,RRIRNRPPRLPRPRPRPLIRPRP,-0.0892
2,RRIRKRPPRLPRPRPRPGGHPRP,0.0505
3,RRIRMRPPRLPRPRPRPNDQPRP,0.0566
4,RRIRRRPPRLPRPRPRPIARPRP,0.0248
5,RRIRTRPPRLPRPRPRPWTAPRP,-0.124
6,RRIRKRPPRLPRPRPRPQGMPRP,-0.027
7,RRIRQRPPRLPRPRPRPRRLPRP,0.752
8,RRIRCRPPRLPRPRPRPISNPRP,-0.145
9,RRIRSRPPRLPRPRPRPHYTPRP,-0.728
10,RRIRHRPPRLPRPRPRPASYPRP,-0.103
11,RRIRTRPPRLPRPRPRPGIAPRP,-0.0278
12,RRIRSRPPRLPRPRPRPVWVPRP,0.351
13,RRIRNRPPRLPRPRPRPKFDPRP,-0.235
14,RRIRIRPPRLPRPRPRPYSQPRP,-0.269
15,RRIRVRPPRLPRPRPRPAKIPRP,0.117
16,RRIRYRPPRLPRPRPRPRAEPRP,-0.162
17,RRIRFRPPRLPRPRPRPWTNPRP,-0.289
18,RRIRGRPPRLPRPRPRPGECPRP,0.959
19,RRIRERPPRLPRPRPRPNCIPRP,-0.712
20,RRIRLRPPRLPRPRPRPYQCPRP,-0.373
21,RRIRCRPPRLPRPRPRPQHGPRP,-0.211
22,RRIRVRPPRLPRPRPRPTCVPRP,-0.0916
23,RRIRPRPPRLPRPRPRPRFIPRP,-0.184
24,RRIRWRPPRLPRPRPRPICIPRP,-0.191
25,RRIRMRPPRLPRPRPRPDLYPRP,0.0737

row,Sequence,shrunken log2 fold change
1,RRIRFRPPRLPRPRPRPAYPPRP,-0.412
2,RRIRIRPPRLPRPRPRPDPMPRP,-0.205
3,RRIRFRPPRLPRPRPRPHDWPRP,0.0906
4,RRIRRRPPRLPRPRPRPGKLPRP,0.0788
5,RRIRLRPPRLPRPRPRPEKIPRP,-0.223
6,RRIRWRPPRLPRPRPRPEIIPRP,0.231
7,RRIRARPPRLPRPRPRPPWVPRP,0.254
8,RRIRLRPPRLPRPRPRPPITPRP,-0.213
9,RRIRSRPPRLPRPRPRPQNGPRP,-0.535
10,RRIRDRPPRLPRPRPRPQPTPRP,0.0584
11,RRIRYRPPRLPRPRPRPDDTPRP,-0.876
12,RRIRMRPPRLPRPRPRPITYPRP,-0.0199
13,RRIRGRPPRLPRPRPRPNFIPRP,-0.00471
14,RRIRERPPRLPRPRPRPQEEPRP,-0.000946
15,RRIRRRPPRLPRPRPRPKWMPRP,0.338
16,RRIRRRPPRLPRPRPRPNGPPRP,0.384
17,RRIRMRPPRLPRPRPRPQLEPRP,0.0634
18,RRIRQRPPRLPRPRPRPNYDPRP,-0.257
19,RRIRVRPPRLPRPRPRPVTMPRP,-0.196
20,RRIRKRPPRLPRPRPRPVPRPRP,0.72
21,RRIRARPPRLPRPRPRPVICPRP,0.408
22,RRIRARPPRLPRPRPRPPFYPRP,0.14
23,RRIRFRPPRLPRPRPRPNRLPRP,-0.121
24,RRIRQRPPRLPRPRPRPFKAPRP,-0.059
25,RRIRIRPPRLPRPRPRPPKQPRP,-0.158

row,Sequence,shrunken log2 fold change
1,RRIRRRPPRLPRPRPRPCMIPRP,-0.108
2,RRIRERPPRLPRPRPRPANGPRP,-0.042
3,RRIRNRPPRLPRPRPRPPSQPRP,0.16
4,RRIRVRPPRLPRPRPRPNHPPRP,-0.0266
5,RRIRDRPPRLPRPRPRPLAPPRP,0.607
6,RRIRHRPPRLPRPRPRPCYIPRP,-0.0479
7,RRIRRRPPRLPRPRPRPCPHPRP,-0.27
8,RRIRSRPPRLPRPRPRPASVPRP,0.377
9,RRIRMRPPRLPRPRPRPVLTPRP,0.27
10,RRIRYRPPRLPRPRPRPNGEPRP,-0.0103
11,RRIRFRPPRLPRPRPRPHVMPRP,-0.288
12,RRIRKRPPRLPRPRPRPHVRPRP,-0.0167
13,RRIRFRPPRLPRPRPRPAWKPRP,-0.284
14,RRIRMRPPRLPRPRPRPRQGPRP,-0.0232
15,RRIRLRPPRLPRPRPRPQGDPRP,-0.0165
16,RRIRRRPPRLPRPRPRPFTMPRP,-0.198
17,RRIRTRPPRLPRPRPRPQSMPRP,0.13
18,RRIRRRPPRLPRPRPRPFAYPRP,-0.0942
19,RRIRKRPPRLPRPRPRPLLVPRP,0.372
20,RRIRKRPPRLPRPRPRPRQLPRP,0.8
21,RRIRERPPRLPRPRPRPLQFPRP,-0.468
22,RRIRNRPPRLPRPRPRPEGNPRP,-0.0214
23,RRIRYRPPRLPRPRPRPQQNPRP,-0.421
24,RRIRRRPPRLPRPRPRPLCNPRP,0.0189
25,RRIRRRPPRLPRPRPRPPWVPRP,0.535

row,Sequence,shrunken log2 fold change
1,RRIRFRPPRLPRPRPRPHCPPRP,-0.629
2,RRIRSRPPRLPRPRPRPDIYPRP,-0.194
3,RRIRGRPPRLPRPRPRPSKTPRP,0.558
4,RRIRERPPRLPRPRPRPENNPRP,-0.27
5,RRIRTRPPRLPRPRPRPLLGPRP,-0.185
6,RRIRVRPPRLPRPRPRPNYWPRP,-0.307
7,RRIRKRPPRLPRPRPRPNQAPRP,-0.171
8,RRIRLRPPRLPRPRPRPMCWPRP,0.0663
9,RRIRCRPPRLPRPRPRPRPLPRP,0.319
10,RRIRGRPPRLPRPRPRPFDYPRP,-0.145
11,RRIRLRPPRLPRPRPRPTDDPRP,-0.0495
12,RRIRCRPPRLPRPRPRPNHYPRP,-0.825
13,RRIRIRPPRLPRPRPRPTCTPRP,-0.807
14,RRIRNRPPRLPRPRPRPPRTPRP,0.59
15,RRIRCRPPRLPRPRPRPSYKPRP,-0.572
16,RRIRFRPPRLPRPRPRPHPNPRP,-0.31
17,RRIRMRPPRLPRPRPRPRKNPRP,0.433
18,RRIRCRPPRLPRPRPRPCDNPRP,-0.0831
19,RRIRHRPPRLPRPRPRPYQKPRP,-0.01
20,RRIRRRPPRLPRPRPRPHHHPRP,-0.161
21,RRIRGRPPRLPRPRPRPPTVPRP,1.12
22,RRIRHRPPRLPRPRPRPKSKPRP,-0.598
23,RRIRRRPPRLPRPRPRPDWIPRP,-0.223
24,RRIRWRPPRLPRPRPRPDVHPRP,-0.0103
25,RRIRKRPPRLPRPRPRPIMYPRP,0.0532

row,Sequence,shrunken log2 fold change
1,RRIRGRPPRLPRPRPRPLQLPRP,0.447
2,RRIRMRPPRLPRPRPRPIKMPRP,0.14
3,RRIRRRPPRLPRPRPRPNIHPRP,0.564
4,RRIRRRPPRLPRPRPRPFGRPRP,0.114
5,RRIRYRPPRLPRPRPRPIIDPRP,-1
6,RRIRWRPPRLPRPRPRPGKLPRP,-0.368
7,RRIRRRPPRLPRPRPRPATWPRP,0.359
8,RRIRDRPPRLPRPRPRPCVSPRP,0.0278
9,RRIRERPPRLPRPRPRPHYMPRP,-0.0919
10,RRIRSRPPRLPRPRPRPIHRPRP,-0.172
11,RRIRIRPPRLPRPRPRPGRSPRP,0.0764
12,RRIRLRPPRLPRPRPRPEIWPRP,0.198
13,RRIRHRPPRLPRPRPRPVKSPRP,-0.0219
14,RRIRWRPPRLPRPRPRPQPLPRP,-0.0153
15,RRIRPRPPRLPRPRPRPEAKPRP,1.03
16,RRIRRRPPRLPRPRPRPEDIPRP,0.06
17,RRIRRRPPRLPRPRPRPGFSPRP,0.131
18,RRIRGRPPRLPRPRPRPRYEPRP,0.409
19,RRIRTRPPRLPRPRPRPKTPPRP,-0.0565
20,RRIRNRPPRLPRPRPRPEMEPRP,-0.0148
21,RRIRNRPPRLPRPRPRPLASPRP,-0.196
22,RRIRIRPPRLPRPRPRPALLPRP,0.178
23,RRIRWRPPRLPRPRPRPMCCPRP,0.181
24,RRIRIRPPRLPRPRPRPSLAPRP,0.0113
25,RRIRPRPPRLPRPRPRPFKRPRP,-0.00475
